Reference: EP4039268A1 (IMBA-Institut für Molekulare Biotechnologie GmbH, dated 2022)

Columns and labels:
[1] = molecular target: T1, human recombinant soluble ACE2 (human, UniProt Q9BYF1 18-740); experiment: ELISA
T1 construct: also called hrsACE2

[2] = molecular target: T2, full-length trimeric SARS-CoV-2 Spike protein (Spike-H6) (SARS-CoV-2, N-glycosylated (22 N-glycosylation sites)); experiment: ELISA screen
T2 construct: also called trimeric Spike; full-length Spike-H6

[3] = molecular target: T1, human recombinant soluble ACE2; experiment: ELISA screen
[4] = molecular target: T3, monomeric SARS-CoV-2 receptor binding domain (RBD-H6) (SARS-CoV-2, UniProt P0DTC2 319-541); experiment: ELISA screen
T3 construct: Made in HEK293-6E cells; also called RBD Spike; monomeric RBD

Binder	binding result [1]	Mean normalized OD [2]	Mean normalized OD [3]	Mean normalized OD [4]
Mrc2_7 CRD-mouse IgG2a-Fc fusion protein (Fc fusion) YLNHTFRLLQKPLRWKDALLLCESRNASLAHVPDPYTQAFLTQAARGLQTPLWIGLASEEGSRRYSWLSEEPLNYVSWQDEEPQHSGGCAYVDVDGTWRTTSCDTKLQGAVCGGGSGGGSGGGS	no binding (tested: 10 µg/ml)	0.002 OD	0 OD	0.002 OD
Lgals4_2 CRD-mouse IgG2a-Fc fusion protein (Fc fusion) YVGALQGGLTVRRTIIIKGYVLPTARNFVINFKVGSSGDIALHLNPRIGDSVVRNSFMNGSWGAEERKVAYNPFGPGQFFDLSIRCGMDRFKVFANGQHLFDFSHRFQAFQMVDTLEINGDITLSYVQIGGGSGGGSGGGS	no binding (tested: 10 µg/ml)	0.034 OD	0.031 OD	0.014 OD
Cd209d CRD-mouse IgG2a-Fc fusion protein (Fc fusion) FFNGSCYFFSKSQRNWHNSTTACQELGAQLVIIETDEEQTFLQQTSKARGPTWMGLSDMHNEATWHWVDGSPLSPSFTRYWNRGEPNNVGDEDCAEFSGDGWNDLSCDKLLFWICKGGGSGGGSGGGS	no binding (tested: 10 µg/ml)	0.01 OD	0.039 OD	0.019 OD
Lgals8_2 CRD-mouse IgG2a-Fc fusion protein (Fc fusion) FEARLNASMGPGRTVVIKGEVNTNARSFNVDLVAGKTRDIALHLNPRLNVKAFVRNSFLQDAWGEEERNITCFPFSSGMYFEMIIYCDVREFKVAINGVHSLEYKHRFKDLSSIDTLSVDGDIRLLDVRSWGGGSGGGSGGGS	no binding (tested: 10 µg/ml)	0.037 OD	0.074 OD	0.012 OD
Ly75_8 CRD-mouse IgG2a-Fc fusion protein (Fc fusion) FQNSCYNFMITNNRHKTVTPEEVQSTCEKLHSKAHSLSIRNEEENTFVVEQLLYFNYIASWVMLGITYENNSLMWFDKTALSYTHWRTGRPTVKNGKFLAGLSTDGFWDIQSFNVIEETLHFYQGGGSGGGSGGGS	no binding (tested: 10 µg/ml)	0.011 OD	0.054 OD	0.007 OD
Ly75_6 CRD-mouse IgG2a-Fc fusion protein (Fc fusion) FQNKCFLKVNSGPVTFSQASGICHSYGGTLPSVLSRGEQDFIISLLPEMEASLWIGLRWTAYERINRWTDNRELTYSNFHPLLVGRRLSIPTNFFDDESHFHCALILNLKKSPLTGTWNFTSCSERHSLSLCQKGGGSGGGSGGGS	no binding (tested: 10 µg/ml)	0.007 OD	0.005 OD	0.003 OD
Mrc2_2 CRD-mouse IgG2a-Fc fusion protein (Fc fusion) FQGHCYRLQAEKRSWQESKRACLRGGGDLLSIHSMAELEFITKQIKQEVEELWIGLNDLKLQMNFEWSDGSLVSFTHWHPFEPNNFRDSLEDCVTIWGPEGRWNDSPCNQSLPSICKGGGSGGGSGGGS	no binding (tested: 10 µg/ml)	0.017 OD	0.009 OD	0.038 OD
Klri2 CRD-mouse IgG2a-Fc fusion protein (Fc fusion) FGNNFYCVFRENSKTWVESQSACEELNSHLVIIDSKAEVENLLLFEMDGWILHRMDGTNSSRLWGNDIKIRNTLMNDSEKKNHSCHYLRGNIFMPDECSAKKTYICEGGGSGGGSGGGS	no binding (tested: 10 µg/ml)	0.006 OD	0.005 OD	0.001 OD
Lgals12_2 CRD-mouse IgG2a-Fc fusion protein (Fc fusion) CSRALPRGLWPGQVIVVRGLVLKEPKDFTLSLKDGTTHVPVTLRASFTDRTLAWVSSWGRKKLISAPFLFHPQRFFEVLLLCQEGGLKLALNGQGLGATSLDQKALEQLRELRISGNVHLYCVHCGGGSGGGSGGGS	no binding (tested: 10 µg/ml)	0.025 OD	0.031 OD	0.009 OD
Mbl2 CRD-mouse IgG2a-Fc fusion protein (Fc fusion) KVGKKYFVSSVKKMSLDRVKALCSEFQGSVATPRNAEENSAIQKVAKDIAYLGITDVRVEGSFEDLTGNRVRYTNWNDGEPNNTGDGEDCVVILGNGKWNDVPCSDSFLAICEGGGSGGGSGGGS	no binding (tested: 10 µg/ml)	0.14 OD	0 OD	0.001 OD
Pla2r1_4 CRD-mouse IgG2a-Fc fusion protein (Fc fusion) GLASCFKVFHSEKVLMKRSWREAEAFCEEFGAHLASFAHIEEENFVNELLHSKFNWTQERQFWIGFNRRNPLNAGSWAWSDGSPVVSSFLDNAYFEEDAKNCAVYKANKTLLPSNCASKHEWICRGGGSGGGSGGGS	no binding (tested: 10 µg/ml)	0.063 OD	0.088 OD	0.053 OD
Klrd1 CRD-mouse IgG2a-Fc fusion protein (Fc fusion) HQCNCYFISKEEKSWKRSRDFCASQNSSLLQPQSRNELSFMNFSQTFFWIGMHYSEKRNAWLWEDGTVPSKDLFPEFSVIRPEHCIVYSPSKSVSAESCENKNRYICKGGGSGGGSGGGS	no binding (tested: 10 µg/ml)	0.003 OD	0.006 OD	0.004 OD
Cd207 CRD-mouse IgG2a-Fc fusion protein (Fc fusion) FSGNFYYFSRTPKTWYSAEQFCISRKAHLTSVSSESEQKFLYKAADGIPHWIGLTKAGSEGDWYWVDQTSFNKEQSRRFWIPGEPNNAGNNEHCANIRVSALKCWNDGPCDNTFLFICKGGGSGGGSGGGS	no binding (tested: 10 µg/ml)	0.028 OD	0.123 OD	0.118 OD
Pla2r1_5 CRD-mouse IgG2a-Fc fusion protein (Fc fusion) YQNAEYLFHTHPAEWATFEFVCGWLRSDFLTIYSAQEQEFIHSKIKGLTKYGVKWWIGLEEGGARDQIQWSNGSPVIFQNWDKGREERVDSQRKRCVFISSITGLWGTENCSVPLPSICKGGGSGGGSGGGS	no binding (tested: 10 µg/ml)	0.029 OD	0.065 OD	0.036 OD
Mrc1_2 CRD-mouse IgG2a-Fc fusion protein (Fc fusion) YAGHCYRIHREEKKIQKYALQACRKEGGDLASIHSIEEFDFIFSQLGYEPNDELWIGLNDIKIQMYFEWSDGTPVTFTKWLPGEPSHENNRQEDCVVMKGKDGYWADRACEQPLGYICKGGGSGGGSGGGS	no binding (tested: 10 µg/ml)	-0.028 OD	0 OD	0.106 OD
Mrc1_1 CRD-mouse IgG2a-Fc fusion protein (Fc fusion) LTGILYQINSKSALTWHQARASCKQQNADLLSVTEIHEQMYLTGLTSSLSSGLWIGLNSLSVRSGWQWAGGSPFRYLNWLPGSPSSEPGKSCVSLNPGKNAKWENLECVQKLGYICKGGGSGGGSGGGS	no binding (tested: 10 µg/ml)	0.109 OD	0.161 OD	0.076 OD
Lgals2 CRD-mouse IgG2a-Fc fusion protein (Fc fusion) KFEVKDLNMKPGMSLKIKGKIHNDVDRFLINLGQGKETLNLHFNPRFDESTIVCNTSEGGRWGQEQRENHMCFSPGSEVKITITFQDKDFKVTLPDGHQLTFPNRLGHNQLHYLSMGGLQISSFKLEGGGSGGGSGGGS	no binding (tested: 10 µg/ml)	0.035 OD	0.031 OD	0.018 OD
Lgalslb CRD-mouse IgG2a-Fc fusion protein (Fc fusion) YFRGHIKGGMRPGKKVLVMGIVDHNPKSFAISLTCGDSEDPPADVAIELKVVFTNQQVFRNSCISGESDEENLAFPYFPFVPDQPFRMEIFCQQPCFRVLVDGHHLFDFYHRIQTLSAIDSIKISGDLQIGGGSGGGSGGGS	no binding (tested: 10 µg/ml)	0.026 OD	0.047 OD	0.01 OD
Cd209a CRD-mouse IgG2a-Fc fusion protein (Fc fusion) FQGSCYFFSVAQKSWNDSATACHNVGAQLVVIKSDEEQNFLQQTSKKRGYTWMGLIDMSKESTWYWVDGSPLTLSFMKYWSKGEPNNLGEEDCAEFRDDGWNDTKCTNKKFWICKGGGSGGGSGGGS	no binding (tested: 10 µg/ml)	0.014 OD	0.049 OD	0.028 OD
Mrc2_3 CRD-mouse IgG2a-Fc fusion protein (Fc fusion) HSPSCYWLGEDQVIYSDARRLCTDHGSQLVTITNRFEQAFVSSLIYNWEGEYFWTALQDLNSTGSFRWLSGDEVIYTHWNRDQPGYRRGGCVALATGSAMGLWEVKNCTSFRARYICGGGSGGGSGGGS	no binding (tested: 10 µg/ml)	0.003 OD	0.01 OD	0.003 OD
Pkd1l3 CRD-mouse IgG2a-Fc fusion protein (Fc fusion) GGNSCYQLNRLFCDFQEADNYCHAQRGRLAHTWNPKLRGFLKSFLNEETVWWVRGNLTLPGSHPGINQTGGDDVLRNQKPGECPSVVTHSNAVFSRWNLCIEKHHFICQGGGSGGGSGGGS	no binding (tested: 10 µg/ml)	0.046 OD	0.017 OD	-0.001 OD
Lgals8_1 CRD-mouse IgG2a-Fc fusion protein (Fc fusion) YVGTITEQLKPGSLIVIRGHVPKDSERFQVDFQLGNSLKPRADVAFHFNPRFKRSSCIVCNTLTQEKWGWEEITYDMPFRKEKSFEIVFMVLKNKFQVAVNGRHVLLYAHRISPEQIDTVGIYGKVNIHSIGFRGGGSGGGSGGGS	no binding (tested: 10 µg/ml)	0.019 OD	0.062 OD	0.031 OD
